Patent US20200140562A1 (Innovent, published 2020)
Changes are numbered by the printed parent chain.

T1: mouse OX40Fc (Acro Biosystems) (mouse, UniProt P47741 20-211, limits assumed)
T1 construct: Bought; not shown: Fc
T1 sequence (looked up): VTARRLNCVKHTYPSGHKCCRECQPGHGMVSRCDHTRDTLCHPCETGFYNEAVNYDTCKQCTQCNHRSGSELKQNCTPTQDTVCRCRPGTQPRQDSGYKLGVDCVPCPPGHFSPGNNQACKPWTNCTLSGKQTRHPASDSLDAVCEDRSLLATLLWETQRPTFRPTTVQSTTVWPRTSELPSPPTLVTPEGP

T2: Human biotinylated OX40-His monomer (human, UniProt P43489 29-216, limits assumed, biotinylated)
T2 construct: Bought from Acro Biosystems; also called biotin-OX-40 monomer; not shown: His tag
T2 sequence (looked up): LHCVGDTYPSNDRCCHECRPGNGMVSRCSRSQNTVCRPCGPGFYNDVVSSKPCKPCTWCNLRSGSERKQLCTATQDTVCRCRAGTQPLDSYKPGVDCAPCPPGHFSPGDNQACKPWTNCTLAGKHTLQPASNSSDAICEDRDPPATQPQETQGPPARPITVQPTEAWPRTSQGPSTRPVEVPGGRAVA

T3: human OX40 on cells (CHO-hOX40, 293HEK-hOX40, Jurkat-hOX40, activated primary CD4+ T cells) (human, UniProt P43489 29-277)
T3 construct: whole, on cells; The cell type is told in each assay; also called CHO-OX40
T3 sequence (looked up): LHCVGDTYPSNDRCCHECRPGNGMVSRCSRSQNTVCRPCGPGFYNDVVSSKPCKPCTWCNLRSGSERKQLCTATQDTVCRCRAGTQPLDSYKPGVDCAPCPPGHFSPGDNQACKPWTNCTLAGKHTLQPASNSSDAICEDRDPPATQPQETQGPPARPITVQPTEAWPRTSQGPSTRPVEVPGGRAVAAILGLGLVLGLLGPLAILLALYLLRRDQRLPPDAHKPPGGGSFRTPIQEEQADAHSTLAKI

B1: ADI-25652, IgG1 format (antibody, V domains shown)
VH: QVQLVESGGGVVQPGRSLRLSCAASGFTFVSYNMHWVRQAPGKGLEWVAVIAYDGSVKYYADSVKGRFTISRDNSKNTLYLQMNSLRAEDTAVYYCARGRPWYSETGTSAFDIWGQGTMVTVSS
VL: DIQMTQSPSSLSASVGDRVTITCQASQDISNYLNWYQQKPGKAPKLLIYDASNLETGVPSRFSGSGSGTDFTFTISSLQPEDIATYYCQQSDHYPTFGGGTKVEIKR
notes: Made in yeast
B2: ADI-25653, IgG1 format (antibody, V domains shown)
VH: B1 VH with A52M, V57A
VL: B1 VL
notes: Made in yeast
B3: ADI-25650, IgG1 format (antibody, V domains shown)
VH: B1 VH with V30S, S31V, V57A
VL: B1 VL
notes: Made in yeast
B4: ADI-25651, IgG1 format (antibody, V domains shown)
VH: B1 VH with V30S, Y32R, V57L
VL: B1 VL
notes: Made in yeast
B5: ADI-23518, IgG1 format (antibody, V domains shown)
VH: QVQLQESGPGLVKPSQTLSLTCTVSGGSISSGASYWSWIRQHPGKGLEWIGYIYYSGETYYNPSLKSRVTISVDTSKNQFSLKLSSVTAADTAVYYCARDVGYPHYYGMDVWGQGTTVTVSS
VL: EIVLTQSPGTLSLSPGERATLSCRASQSVSSSYLAWYQQKPGQAPRLLIYGASSRATGIPDRFSGSGSGTDFTLTISRLEPEDFAVYYCQQSERSPFTFGGGTKVEIKR
notes: Made in yeast
B6: ADI-23519, IgG1 format (antibody, V domains shown)
VH: B5 VH with A33S, Y55M
VL: B5 VL
notes: Made in yeast
B7: ADI-23518, Fab (Fab, V domains shown)
VH: B5 VH
VL: B5 VL
B8: ADI-23515, Fab (Fab, V domains shown)
VH: B5 VH with S30R, S34Y, S56D, E58Q
VL: B5 VL
B9: ADI-23519, Fab (Fab, V domains shown)
VH: B5 VH with A33S, Y55M
VL: B5 VL
B10: ADI-20112, Fab (Fab, V domains shown)
VH: B1 VH with V30S, N33G, A52S, V57N
VL: B1 VL
B11: ADI-25652, Fab (Fab, V domains shown)
VH: B1 VH
VL: B1 VL
B12: ADI-25653, Fab (Fab, V domains shown)
VH: B1 VH with A52M, V57A
VL: B1 VL
B13: ADI-25654, Fab (Fab, V domains shown)
VH: B1 VH with V30R, N33D, V50Y, V57N
VL: B1 VL
B14: ADI-25651, Fab (Fab, V domains shown)
VH: B1 VH with V30S, Y32R, V57L
VL: B1 VL
B15: ADI-25650, Fab (Fab, V domains shown)
VH: B1 VH with V30S, S31V, V57A
VL: B1 VL
B16: ADI-20066, Fab (Fab, V domains shown)
VH: QLQLQESGPGLVKPSETLSLTCTVSGGSISSSSYYWGWIRQPPGKGLEWIGSIYYSGSTYYNPSLKSRVTISVDTSKNQFSLKLSSVTAADTAVYYCARDPGYSASPNWFDPWGQGTLVTVSS
VL: B5 VL with Y33F, S92Y, E93D, R94V, S95F, F97I
B17: ADI-20113, Fab (Fab, V domains shown)
VH: B1 VH with V30S, N33G, A52S, V57N
VL: EIVMTQSPATLSVSPGERATLSCRASQSVSSNLAWYQQKPGQAPRLLIYSASTRATGIPARFSGSGSGTEFTLTISSLQSEDFAVYYCQQHNVYPPYTFGGGTKVEIKR
B18: ADI-20118, Fab (Fab, V domains shown)
VH: QVQLVQSGAEVKKPGASVKVSCKASGYTFTSYAISWVRQAPGQGLEWMGWISAYNGNTNYAQKLQGRVTMTTDTSTSTAYMELRSLRSDDTAVYYCARSGGGSGPNWFDPWGQGTLVTVSS
VL: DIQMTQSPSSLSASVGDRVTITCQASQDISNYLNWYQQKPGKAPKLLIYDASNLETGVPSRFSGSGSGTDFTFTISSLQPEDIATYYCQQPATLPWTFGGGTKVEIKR
B19: ADI-20051, Fab (Fab, V domains shown)
VH: QVQLQQWGAGLLKPSETLSLTCAVYGGSFSGYYWSWIRQPPGKGLEWIGEIDHSGSTNYNPSLKSRVTISVDTSKNQFSLKLSSVTAADTAVYYCARDGGGGYASPFDYWGQGTLVTVSS
VL: EIVMTQSPATLSVSPGERATLSCRASQSVSSNLAWYQQKPGQAPRLLIYGASTRATGIPARFSGSGSGTEFTLTISSLQSEDFAVYYCQQYHAWPPTFGGGTKVEIKR
B20: ADI-20065, Fab (Fab, V domains shown)
VH: B16 VH
VL: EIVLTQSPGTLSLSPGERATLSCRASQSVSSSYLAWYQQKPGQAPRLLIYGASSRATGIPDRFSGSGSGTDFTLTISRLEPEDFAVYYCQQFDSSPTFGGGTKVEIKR

Biological target: T1, mouse OX40Fc (Acro Biosystems)
Test: BLI, IgG1 on tip, mouse OX40-Fc in solution

| binding result | Binder |
| --- | --- |
| no binding (tested: 100 nM) | B1 |
| no binding (tested: 100 nM) | B2 |
| no binding (tested: 100 nM) | B3 |
| no binding (tested: 100 nM) | B4 |

Biological target: T4, human OX40_Fc (R&D Systems) (human, UniProt P43489 29-216)
T4 construct: Bought
Test: BLI, IgG1 on tip, hOX40-Fc 50 nM, avid

| Kd [nM] | Binder |
| --- | --- |
| 0.297 | B5 |
| 0.255 | B6 |
| 0.261 | B1 |
| 0.223 | B2 |
| 0.23 | B3 |
| 0.268 | B4 |

Biological target: T4, human OX40_Fc (R&D Systems)
Test: BLI, hOX40-Fc on tip, Fab 200 nM, monovalent

| Kd [nM] | Binder |
| --- | --- |
| 7.16 | B7 |
| 3.79 | B8 |
| 5.36 | B9 |
| 63.9 | B10 |
| 1.31 | B11 |
| 1.63 | B12 |
| 1.8 | B13 |
| 2.32 | B14 |
| 1.04 | B15 |

Biological target: T4, human OX40_Fc (R&D Systems)
Test: BLI, hOX40-Fc on tip, Fab 200 nM, monovalent
Remark: another data set of the same source

| Kd [nM] | Binder |
| --- | --- |
| 21.8 | B16 |
| 70.6 | B10 |
| 182 | B17 |
| 137 | B18 |
| 25.8 | B19 |
| 10.8 | B20 |

Biological target: T2, Human biotinylated OX40-His monomer
Test: MSD-SET, biotinylated OX40-His monomer with Fab

| Kd [nM] | Binder |
| --- | --- |
| 0.16 | B8 |
| 0.15 | B11 |
| 0.086 | B12 |
| 0.18 | B13 |
| 0.17 | B14 |
| 0.14 | B15 |

Biological target: T5, cyno OX40_Fc (Acro Biosystems) (cyno)
T5 construct: Bought
Test: BLI, IgG1 on tip, cyno OX40-Fc 100 nM, avid
Procedure: Sensors with loaded antibodies were exposed to 100 nM OX40 antigens for 5 min, afterwards they were transferred to assay buffer for dissociation of 5 min for off-rate measurement. Kinetics was analysed using the 1:1 binding model.

| Kd [nM] | Binder |
| --- | --- |
| 1.08 | B5 |
| 1.1 | B6 |
| 2.11 | B1 |
| 1.15 | B2 |
| 1.6 | B3 |
| 1.37 | B4 |

Biological target: T3, human OX40 on cells (CHO-hOX40, …)
Test: flow cytometry, MFI on CHO-hOX40 over wild-type CHO

| Fold difference [fold] | Binder |
| --- | --- |
| 1480 | B5 |
| 2400 | B1 |
| 2320 | B2 |
| 2040 | B3 |
| 2340 | B4 |

Biological target: T3, human OX40 on cells (CHO-hOX40, …)
Test: flow cytometry, CHO-hOX40, 100 nM

| CHO-OX40 binding intensity (MFI) | Binder |
| --- | --- |
| 173000 | B5 |
| 253000 | B1 |
| 252000 | B2 |
| 252000 | B3 |
| 253000 | B4 |
